US20250270343A1 (Alector, published 2025)
Substitutions are numbered along the chain they refer to.

T1: full-length untagged human GPNMB expressed on cells (human, UniProt Q14956 23-572)
T1 sequence: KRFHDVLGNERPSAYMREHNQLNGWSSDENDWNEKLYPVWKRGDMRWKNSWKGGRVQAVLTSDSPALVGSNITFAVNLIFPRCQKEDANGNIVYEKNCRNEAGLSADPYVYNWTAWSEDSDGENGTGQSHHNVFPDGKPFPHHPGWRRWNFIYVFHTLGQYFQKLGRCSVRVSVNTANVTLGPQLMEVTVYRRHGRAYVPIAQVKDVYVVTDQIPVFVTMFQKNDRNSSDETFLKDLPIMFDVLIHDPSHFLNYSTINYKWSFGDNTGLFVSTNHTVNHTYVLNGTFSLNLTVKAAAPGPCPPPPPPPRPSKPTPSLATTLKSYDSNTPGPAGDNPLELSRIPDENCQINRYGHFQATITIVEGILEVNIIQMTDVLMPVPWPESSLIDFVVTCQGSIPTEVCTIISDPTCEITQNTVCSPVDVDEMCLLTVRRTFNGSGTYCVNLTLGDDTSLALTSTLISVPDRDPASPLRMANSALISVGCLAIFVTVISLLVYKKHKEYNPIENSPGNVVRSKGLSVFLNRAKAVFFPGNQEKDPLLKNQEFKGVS

T2: mouse GPNMB endogenously expressed on B16F10 cells (mouse, UniProt Q99P91 23-574)
T2 construct: whole, on cells; also called moGPNMB
T2 sequence (looked up): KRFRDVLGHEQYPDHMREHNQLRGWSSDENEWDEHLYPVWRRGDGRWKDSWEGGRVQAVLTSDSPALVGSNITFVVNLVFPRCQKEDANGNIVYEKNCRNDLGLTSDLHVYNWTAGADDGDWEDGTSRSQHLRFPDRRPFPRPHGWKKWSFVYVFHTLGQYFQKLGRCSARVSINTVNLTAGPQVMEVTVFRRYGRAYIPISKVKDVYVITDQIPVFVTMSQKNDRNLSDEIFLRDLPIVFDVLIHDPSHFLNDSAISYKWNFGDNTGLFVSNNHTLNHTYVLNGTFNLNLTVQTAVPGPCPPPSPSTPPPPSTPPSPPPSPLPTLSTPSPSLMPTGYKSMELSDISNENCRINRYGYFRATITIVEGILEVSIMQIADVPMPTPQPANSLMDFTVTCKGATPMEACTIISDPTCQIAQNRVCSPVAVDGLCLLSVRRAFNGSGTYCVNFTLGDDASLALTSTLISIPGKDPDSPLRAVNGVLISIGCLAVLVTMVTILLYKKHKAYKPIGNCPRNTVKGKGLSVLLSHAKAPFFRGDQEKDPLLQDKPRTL

T3: soluble human GPNMB (recombinant extracellular domain) (human, UniProt Q14956 23-498)
T3 construct: also called huGPNMB; recombinant human GPNMB extracellular domain; not shown: C-terminal polyhistidine or Avi-His tag
T3 sequence: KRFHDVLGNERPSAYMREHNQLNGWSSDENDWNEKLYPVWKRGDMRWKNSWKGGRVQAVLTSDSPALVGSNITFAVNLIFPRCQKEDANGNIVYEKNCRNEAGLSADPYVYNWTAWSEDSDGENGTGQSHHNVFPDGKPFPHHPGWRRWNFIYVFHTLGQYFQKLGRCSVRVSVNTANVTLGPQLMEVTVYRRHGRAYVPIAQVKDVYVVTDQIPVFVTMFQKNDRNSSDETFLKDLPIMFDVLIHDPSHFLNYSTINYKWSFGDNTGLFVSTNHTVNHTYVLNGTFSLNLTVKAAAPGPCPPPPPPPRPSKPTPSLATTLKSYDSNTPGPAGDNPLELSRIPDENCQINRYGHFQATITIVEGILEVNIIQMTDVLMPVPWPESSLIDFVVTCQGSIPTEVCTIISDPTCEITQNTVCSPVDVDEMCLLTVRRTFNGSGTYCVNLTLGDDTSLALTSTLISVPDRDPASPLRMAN

B1: anti-GPNMB antibody GPN-24 (antibody, human IgG1, V domains shown)
VH: QVQLQQPGAELVKPGASVKMSCKASGYTFTSYWITWVKQRPGQGLEWIGDIHPGSGRSNYNEKFKNKATLNVDTSSSTVYMQLSSLTSEDSAVYYCARDYLFAYWGQGTLVTVSA
VL: DIQMTQSPSSLSASLGERVSLTCRASQEISGYLSWLQQKPDGTIKRLIYSTSTLDSGVPKRFSGSRSGSDYSLTISSLESEDFADYYCLQYTSSPPTFGGGTKLEIK
notes: chimeric
B2: anti-GPNMB antibody GPN-30 (antibody, human IgG1, V domains shown)
VH: EVQLQQSGPELVNPGASVRISCKASGYSFTGYYMNWVKQSPEKSLEWIGEINPNTGFTTYNQNFKAKATLTVDKSSSTAYIQLKSLTSEDSAVYYCTRPSPSFDYWGQGTTLTVSS
VL: B1 VL with V19G, Y32H, S50A, T51A, T92A, S94Y, P96Y
notes: chimeric
B3: anti-GPNMB antibody GPN-26 (antibody, human IgG1, V domains shown)
VH: EVQLQQSGPELVKPGASVKISCKASGYSFTGYYMNWVRQSPEKSLEWIGEINPSTGITTYNQKFKAKATLTVDKSSNTAFMQLKSLTSEDSAVYYCARPASWFDYWGQGTLVTVSA
VL: B1 VL with Y32H, S50A, T51A, T92A, S94Y, P96Y
notes: chimeric
B4: anti-GPNMB antibody GPN-22 (antibody, human IgG1, V domains shown)
VH: QVQLQQPGAERVKPGASVKMSCKASGYTFTSYWITWVKQRPGQGLEWIGDIFPGSGSTNYHEKFKSKATLTVDTSSSTAYMQLSSLTSEDSAVYYCSRGYFGSSFSDYWGQGTSVTVSS
VL: B1 VL with A25T, T92A, G100S
notes: chimeric
B5: anti-GPNMB antibody GPN-31 (antibody, human IgG1, V domains shown)
VH: B3 VH with R38K, S44N, S54N, I57G, N77T, F80Y, A97T
VL: B1 VL with Y32H, S50A, T51A, S65R, T92A, S94Y, P96Y, E105A
notes: chimeric
B6: anti-GPNMB antibody GPN-25 (antibody, human IgG1, V domains shown)
VH: B3 VH with R38K, S54G, T55S, N77S, F80Y, M81L, D104A
VL: B1 VL with L21F, T22I, Y32H, S50A, T51A, T92A, S94Y, P96Y
notes: chimeric
B7: anti-GPNMB antibody GPN-01 (antibody, human IgG1, V domains shown)
VH: QVQLQQSGAELAKPGASVKLSCKASGYNFTNYCIHWVKQRPGQGLEWIGYINPSTGYTEYNQKFKDKATLTADKSSTTAYMQLSSLTSEDSAVYYCARGRYDEFTYWGQGTLVTVSA
VL: DIVLTQSPASLAVSLGQRATISCRASKSVSTSTYSYMHWYQQKPGQPPKLLIYLASNLESGVPARFSGSGSGTDFTLNIHPVEEEDAATYYCQHSRELPPTFGGGTKLEIK
notes: chimeric
B8: anti-GPNMB antibody GPN-11 (antibody, human IgG1, V domains shown)
VH: QVQLQQPGAELVKPGASVKLSCKASGYTFTSYWMHWVKQRPGQGLEWIGEINSSNGRTNYNEKFKTKATLTVDRSSSTAYMQLSSLTSEDSAVYYCARLGYYSGSPYPYYAMDCWGQGTSVTVSS
VL: DIQMTQSPASLSVSVGETVTITCRASENIYSNLAWYQQKQGKSPQLLVYAATNLADGVPSRFSGSGSGTQYSLKINSLQSEDFGSYYCQHFWNTPPTFGGGTKLEIK
notes: chimeric

Key:
[1] = target: T1, full-length untagged human GPNMB …; experiment: cell-based or functional assay
[2] = target: T2, mouse GPNMB endogenously expressed on …; experiment: FACS on B16F10 mouse melanoma cells (endogenous mouse GPNMB); single antibody concentration (not given); APC anti-human IgG secondary; MFI as fold over background
Experimental: (§1) Recombinant anti-GPNMB antibodies of the present disclosure were examined for their ability to bind human and/or mouse GPNMB expressed on Freestyle293-huGPNMB+ or B16F10 cells, respectively. B16F10 cells are a murine melanoma cell line from a C57BL/6J mouse that endogenously express high levels of mouse GPNMB. The antibodies were also tested for their ability to bind to a human macrophage cell line (U937 cells) engineered to express human GPNMB. Cells were harvested, plated at 100,000 cells/well in a 96-well round bottom plate, and incubated in 100 μl FACS buffer (PBS containing 2% FBS, 2 mM EDTA) containing anti-GPNMB monoclonal antibodies of the present disclosure for 30 minutes on ice. Cells were then washed and incubated in 100 ul FACS buffer containing 1 μg/ml APC-conjugated anti-human IgG secondary antibody for 30 minutes in ice. Cells were washed twice in cold FACS buffer and acquired on a BD FACS Canto. Data analysis and calculation of MFI values was performed with FlowJo (TreeStar) software version 10.0.7. […]

[3] = target: T2, mouse GPNMB endogenously expressed on …; experiment: FACS, B16F10 cells
Experimental: as §1

[4] = target: T3, soluble human GPNMB (recombinant …); experiment: SPR Carterra, Ab immobilized
Experimental: Binding kinetics of human anti-GPNMB IgG1 antibodies of the present disclosure to human, cynomolgus, and mouse GPNMB were evaluated using a Carterra LSA instrument (Carterra, Salt Lake City, UT). […] A HC200M sensor chip (Carterra) was activated using the single channel flow cell with a 7-minute injection of a 1:1:1 mixture of 100 mM MES pH 5.5, 100 mM sulfo-NHS, 400 mM EDC (all reconstituted in MES pH 5.5; 100 μl of each mixed in vial immediately before running assay). After switching to the multi-channel array flow cell, the antibodies were injected over the activated chip in a 96-spot array for 15 minutes. The remaining unconjugated active groups on the chip were then blocked by injecting 1M Ethanolamine pH 8.5 (Carterra) for 7 minutes using the single channel flow cell.
After priming with running buffer (HBS-EP+, Teknova) with 0.5 mg/ml BSA (Sigma), the immobilized anti-GPNMB antibodies were tested for their ability to bind to several forms of recombinant GPNMB extracellular domain, including human, cynomolgus, and mouse orthologs as described above. Estimates of affinity were generated by injecting each analyte over the entire antibody array using the single channel flow cell. GPNMB analytes were diluted to 2.5, 7.4, 22, 67, 200, and 600 nM in running buffer, and injected in serial from lowest to highest concentration without regeneration. Two buffer blanks were run between each series (one species per series). Data were processed and analyzed using Kinetics high-throughput kinetics analysis software (Carterra).

| Binder | CD40 (FoB) [1] | CD80 (FoB) [1] | GCase (FoB) [1] | PDL1 (FoB) [1] | binding result [2] | MFI fold over background [3] | Kd [4] | koff [4] | kon [4] |
| --- | --- | --- | --- | --- | --- | --- | --- | --- | --- |
| B1 | 1.56 FoB | 1.2 FoB | 1.22 FoB | 1.48 FoB | no binding | 1 fold | 8.8 nM | 0.00057 s⁻¹ | 69000 M⁻¹ s⁻¹ |
| B2 | 1.75 FoB | 1.34 FoB | 1.27 FoB | 1.64 FoB | no binding | 1 fold | 5 nM | 0.00012 s⁻¹ | 26000 M⁻¹ s⁻¹ |
| B3 | 1.91 FoB | 1.4 FoB |  | 1.88 FoB | no binding | 1 fold | 11.1 nM | 0.00027 s⁻¹ | 27000 M⁻¹ s⁻¹ |
| B4 | 1.7 FoB | 1.16 FoB | 1.21 FoB | 1.76 FoB | no binding | 1 fold | 120 nM | 0.0034 s⁻¹ | 28000 M⁻¹ s⁻¹ |
| B5 | 1.9 FoB | 1.44 FoB | 1.22 FoB | 1.82 FoB | no binding | 1 fold | 11.7 nM | 0.00028 s⁻¹ | 26000 M⁻¹ s⁻¹ |
| B6 | 1.68 FoB | 1.41 FoB | 1.24 FoB | 1.73 FoB | no binding | 1 fold | 11.4 nM | 0.00028 s⁻¹ | 26000 M⁻¹ s⁻¹ |
| B7 | 1.74 FoB | 1.36 FoB | 1.05 FoB | 1.7 FoB | no binding | 1 fold | 42.5 nM | 0.0038 s⁻¹ | 91000 M⁻¹ s⁻¹ |
| B8 | 1.7 FoB | 1.25 FoB | 1.24 FoB | 1.64 FoB | no binding | 1 fold | 14.4 nM | 0.00095 s⁻¹ | 69000 M⁻¹ s⁻¹ |
